B1: DOA4-independent degradation protein 4 (Saccharomyces cerevisiae), P36108 (parent)
chain: MSLFEWVFGKNVTPQERLKKNQRALERTQRELEREKRKLELQDKKLVSEIKKSAKNGQVAAAKVQAKDLVRTRNYIQKFDNMKAQLQAISLRIQAVRSSDQMTRSMSEATGLLAGMNRTMNLPQLQRISMEFEKQSDLMGQRQEFMDEAIDNVMGDEVDEDEEADEIVNKVLDEIGVDLNSQLQSTPQNLVSNAPIAETAMGIPEPIGAGSEFHGNPDDDLQARLNTLKKQT
partner: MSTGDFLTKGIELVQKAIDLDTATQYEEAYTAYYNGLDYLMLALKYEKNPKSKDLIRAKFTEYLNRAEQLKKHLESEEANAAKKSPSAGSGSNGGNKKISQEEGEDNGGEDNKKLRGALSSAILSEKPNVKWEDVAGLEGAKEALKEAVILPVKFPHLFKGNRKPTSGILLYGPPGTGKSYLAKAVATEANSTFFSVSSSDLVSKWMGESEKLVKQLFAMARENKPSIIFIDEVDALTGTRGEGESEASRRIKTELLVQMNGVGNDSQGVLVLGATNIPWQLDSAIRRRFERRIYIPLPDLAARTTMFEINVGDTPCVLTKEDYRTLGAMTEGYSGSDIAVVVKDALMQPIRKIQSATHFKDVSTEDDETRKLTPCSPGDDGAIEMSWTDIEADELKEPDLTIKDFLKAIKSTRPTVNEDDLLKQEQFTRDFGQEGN

Variants of: B1
Settings: with vps4_yeast VPS4, P52917
For MSLFEWVFGKNVTPQERLKKNQRALERTQRELEREKRKLELQDKKLVSEIKKSAKNGQVAAAKVQAKDLVRTRNYIQKFDNMKAQLQAISLRIQAVRSSDQMTRSMSEATGLLAGMNRTMNLPQLQRISMEFEKQSDLMGQRQEFMDEAIDNVMGDEVDEDEEADEIVNKVLDEIGVDLNSQLQSTPQNLVSNAPIAETAMGIPEPIGAGSEFHGNPDDDDQARLNTLKKQT [L221D], the “effect of a mutation on the interaction” value was “disrupting interaction strength”.
For MSLFEWVFGKNVTPQERLKKNQRALERTQRELEREKRKLELQDKKLVSEIKKSAKNGQVAAAKVQAKDLVRTRNYIQKFDNMKAQLQAISLRIQAVRSSDQMTRSMSEATGLLAGMNRTMNLPQLQRISMEFEKQSDLMGQRQEFMDEAIDNVMGDEVDEDEEADEIVNKVLDEIGVDLNSQLQSTPQNLVSNAPIAETAMGIPEPIGAGSEFHGNPDDDLQADLNTLKKQT [R224D], the “effect of a mutation on the interaction” value was “disrupting interaction strength”.
For MSLFEWVFGKNVTPQERLKKNQRALERTQRELEREKRKLELQDKKLVSEIKKSAKNGQVAAAKVQAKDLVRTRNYIQKFDNMKAQLQAISLRIQAVRSSDQMTRSMSEATGLLAGMNRTMNLPQLQRISMEFEKQSDLMGQRQEFMDEAIDNVMGDEVDEDEEADEIVNKVLDEIGVDLNSQLQSTPQNLVSNAPIAETAMGIPEPIGAGSEFHGNPDDDLQARDNTLKKQT [L225D], the “effect of a mutation on the interaction” value was “disrupting interaction strength”.
With MSLFEWVFGKNVTPQERLKKNQRALERTQRELEREKRKLELQDKKLVSEIKKSAKNGQVAAAKVQAKDLVRTRNYIQKFDNMKAQLQAISLRIQAVRSSDQMTRSMSEATGLLAGMNRTMNLPQLQRISMEFEKQSDLMGQRQEFMDEAIDNVMGDEVDEDEEADEIVNKVLDEIGVDLNSQLQSTPQNLVSNAPIAETAMGIPEPIGAGSEFHGNPDDDLQARLNTDKKQT [L228D] the “effect of a mutation on the interaction” value was “disrupting interaction strength”.
MSLFEWVFGKNVTPQERLKKNQRALERTQRELEREKRKLELQDKKLVSEIKKSAKNGQVAAAKVQAKDLVRTRNYIQKFDNMKAQLQAISLRIQAVRSSDQMTRSMSEATGLLAGMNRTMNLPQLQRISMEFEKQSDLMGQRQEFMDEAIDNVMGDEVDEDEEADEIVNKVLDEIGVDLNSQLQSTPQNLVSNAPIAETAMGIPEPIGAGSEFHGNPDDDLQARLNTLDKQT [K229D] was tested, and the “effect of a mutation on the interaction” value was “disrupting interaction strength”.

From IntAct's records for PubMed 17928861
